B1: IGFBP7: Homo sapiens insulin-like growth factor binding protein 7 protein, purchased (Serotec, R&D SYSTEMS), candidate senescence factor (protein, UniProt Q16270 27-282, looked up)
Insulin-like growth …: SSSDTCGPCEPASCPPLPPLGCLLGETRDACGCCPMCARGEGEPCGGGGAGRGYCAPGMECVKSRKRRKGKAGAAAGGPGVSGVCVCKSRYPVCGSDGTTYPSGCQLRAASQRAESRGEKAITQVSKGTCEQGPSIVTPPKDIWNVTGAQVYLSCEVIGIPTPVLIWNKVKRGHYGVQRTELLPGDRDNLAIQTRGGPEKHEVTGWVLVSPLSKEDAGEYECHASNSQGQASASAKITVVDALHEIPVKKGEGAEL
B2: RSPO4: Homo sapiens R-spondin family, member 4 protein, purchased (Serotec, R&D SYSTEMS), candidate senescence factor (protein, UniProt Q2I0M5 20-234, looked up)
R-spondin-4: LNRRKKQVGTGLGGNCTGCIICSEENGCSTCQQRLFLFIRREGIRQYGKCLHDCPPGYFGIRGQEVNRCKKCGATCESCFSQDFCIRCKRQFYLYKGKCLPTCPPGTLAHQNTRECQGECELGPWGGWSPCTHNGKTCGSAWGLESRVREAGRAGHEEAATCQVLSESRKCPIQRPCPGERSPGQKKGRKDRRPRKDRKLDRRLDVRPRQPGLQP

Test system: young fibroblasts (MMP1 and collagen expression)
Test: Addition of senescence factor proteins to young fibroblasts: MMP1 and collagen gene expression by RT-PCR
Type: cell-based, Homo sapiens
Conditions: protein added at 10 μg/ml vs 0 μg/ml, 2 days; for MMP1 expression: FIG. 4(A); for expression of collagen (Collagen 1 gene): FIG. 4(B)
Procedure: Dermal fibroblasts established from skin from the back of an adult were cultured in Dulbecco's Modified Eagle Medium supplemented with 10% FBS. Cells with a culture period of less than 1 month and Pdl<30 were used as normal fibroblasts (young fibroblasts). These cells were cultured for 3 months or more and cells which began to proliferate more slowly (doubling time less than 0.5/week and Pdl>50) were used as senescent cells. Normal fibroblasts were inoculated on the upper layer of a 6-well transwell system (Falcon; Franklin Lakes, N.J.) filled with Dulbecco's Modified Eagle Medium supplemented with 10% FBS until the density was 1250 cell/cm^2. Subconstructed senescent fibroblasts and normal fibroblasts were separately inoculated in two wells of the lower layer of the transwell system. The upper layer and the lower layer of the transwell system were combined and cultured for 2 days at 37° C. in a humidified atmosphere with 5% CO2, and the cells in the upper layer and the lower layer were recovered using Qiazole (Qiagen).
RNA was extracted from the recovered cell lysate using RNeasy Protect Kit (Qiagen) by following the instructions therefor, then Superscript VILO (Invitrogen) was used to reverse transcribe the RNA into cDNA by following the instructions. Using 28SrRNA as an internal standard, real time PCR was performed with LightCycler (commercially available) using the primer pairs for the following genes. The cycle threshold (Ct value) calculated by Lightcycler software ver. 3.5 was normalized for GAPDH mRNA of each sample.
The proteins of the candidate senescence factors (IGFBP7 and RSPO4) (purchased from Serotec, R&D SYSTEMS) were added to the culture medium for culturing the young fibroblasts at a concentration of 0 μg/ml and 10 μg/ml. After culturing for 2 days, the cells were then separately recovered using Qiazole (Qiagen). In the same way as disclosed in the section relating to quantitative RT-PCR, the expression levels of MMP1 and collagen were examined in the recovered cell lysate.

Molecule	MMP1 expression	expression of collagen (Collagen 1 gene)
B1	increased	reduced
B2	increased	reduced

— US20200232972A1, “METHOD FOR SCREENING ANTI-AGING SUBSTANCES” (Shiseido Company, Ltd., priority 2017, published 2020)
